In patent US20220040297A1 (Chugai, published 2022):

Target: CD3ε homodimer protein (human, UniProt P07766 23-126, limits assumed)
Assay: SPR, immobilized CD3ε homodimer;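 note: biacore T200 surface plasmon resonance at 25 °C, antibody variants flowed as analytes over amine-coupled CD3ε homodimer on a CM4 chip, variant binding amount divided by that of GLS3000 antibody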

Chain of CD3ε homodimer protein (P07766 23-126 limits assumed): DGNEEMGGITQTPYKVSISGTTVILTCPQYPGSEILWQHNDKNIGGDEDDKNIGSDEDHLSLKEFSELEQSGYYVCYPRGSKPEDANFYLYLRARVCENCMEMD

| ratio of amounts bound (vs GLS3000) | Binder |
| --- | --- |
| 0.84 | GLS3000 R54P (antibody, name in Kabat numbering, V domains shown, one-arm format as m2) VH: QVQLVESGGGVVQPGRSLRLSCAASGFTFSNAWMHWVRQAPGKGLEWVAQIKAKSNNYATYYAESVKGRFTISRDDSKNSLYLQMNSLKTEDTAVYYCRYVHYGAYYGVDAWGQGTTVTVSS VL: DIVMTQSPLSLPVTPGEPASISCRSSQSLVHSNRNTYLHWYQQKPGQAPRLLIYKVSNPFSGVPDRFSGSGSGTDFTLKISRVEAEDVGVYYCGQGTQVPYTFGQGTKLEIK |
| 0.53 | GLS3000 S25I (antibody, name in Kabat numbering, V domains shown, one-arm format as m2) VH: QVQLVESGGGVVQPGRSLRLSCAASGFTFSNAWMHWVRQAPGKGLEWVAQIKAKSNNYATYYAESVKGRFTISRDDSKNSLYLQMNSLKTEDTAVYYCRYVHYGAYYGVDAWGQGTTVTVSS VL: DIVMTQSPLSLPVTPGEPASISCRISQSLVHSNRNTYLHWYQQKPGQAPRLLIYKVSNRFSGVPDRFSGSGSGTDFTLKISRVEAEDVGVYYCGQGTQVPYTFGQGTKLEIK |
| 0.86 | GLS3000 S26D (antibody, name in Kabat numbering, V domains shown, one-arm format as m2) VH: QVQLVESGGGVVQPGRSLRLSCAASGFTFSNAWMHWVRQAPGKGLEWVAQIKAKSNNYATYYAESVKGRFTISRDDSKNSLYLQMNSLKTEDTAVYYCRYVHYGAYYGVDAWGQGTTVTVSS VL: DIVMTQSPLSLPVTPGEPASISCRSDQSLVHSNRNTYLHWYQQKPGQAPRLLIYKVSNRFSGVPDRFSGSGSGTDFTLKISRVEAEDVGVYYCGQGTQVPYTFGQGTKLEIK |
| 0.24 | GLS3000 S25L (antibody, name in Kabat numbering, V domains shown, one-arm format as m2) VH: QVQLVESGGGVVQPGRSLRLSCAASGFTFSNAWMHWVRQAPGKGLEWVAQIKAKSNNYATYYAESVKGRFTISRDDSKNSLYLQMNSLKTEDTAVYYCRYVHYGAYYGVDAWGQGTTVTVSS VL: DIVMTQSPLSLPVTPGEPASISCRLSQSLVHSNRNTYLHWYQQKPGQAPRLLIYKVSNRFSGVPDRFSGSGSGTDFTLKISRVEAEDVGVYYCGQGTQVPYTFGQGTKLEIK |
| 0.78 | GLS3000 S26P (antibody, name in Kabat numbering, V domains shown, one-arm format as m2) VH: QVQLVESGGGVVQPGRSLRLSCAASGFTFSNAWMHWVRQAPGKGLEWVAQIKAKSNNYATYYAESVKGRFTISRDDSKNSLYLQMNSLKTEDTAVYYCRYVHYGAYYGVDAWGQGTTVTVSS VL: DIVMTQSPLSLPVTPGEPASISCRSPQSLVHSNRNTYLHWYQQKPGQAPRLLIYKVSNRFSGVPDRFSGSGSGTDFTLKISRVEAEDVGVYYCGQGTQVPYTFGQGTKLEIK |
| 1.03 | GLS3000 S27aG (antibody, name in Kabat numbering, V domains shown, one-arm format as m2) VH: QVQLVESGGGVVQPGRSLRLSCAASGFTFSNAWMHWVRQAPGKGLEWVAQIKAKSNNYATYYAESVKGRFTISRDDSKNSLYLQMNSLKTEDTAVYYCRYVHYGAYYGVDAWGQGTTVTVSS VL: DIVMTQSPLSLPVTPGEPASISCRSSQGLVHSNRNTYLHWYQQKPGQAPRLLIYKVSNRFSGVPDRFSGSGSGTDFTLKISRVEAEDVGVYYCGQGTQVPYTFGQGTKLEIK |
| 0.83 | GLS3000 S25T (antibody, name in Kabat numbering, V domains shown, one-arm format as m2) VH: QVQLVESGGGVVQPGRSLRLSCAASGFTFSNAWMHWVRQAPGKGLEWVAQIKAKSNNYATYYAESVKGRFTISRDDSKNSLYLQMNSLKTEDTAVYYCRYVHYGAYYGVDAWGQGTTVTVSS VL: DIVMTQSPLSLPVTPGEPASISCRTSQSLVHSNRNTYLHWYQQKPGQAPRLLIYKVSNRFSGVPDRFSGSGSGTDFTLKISRVEAEDVGVYYCGQGTQVPYTFGQGTKLEIK |
| 0.81 | GLS3000 S27aE (antibody, name in Kabat numbering, V domains shown, one-arm format as m2) VH: QVQLVESGGGVVQPGRSLRLSCAASGFTFSNAWMHWVRQAPGKGLEWVAQIKAKSNNYATYYAESVKGRFTISRDDSKNSLYLQMNSLKTEDTAVYYCRYVHYGAYYGVDAWGQGTTVTVSS VL: DIVMTQSPLSLPVTPGEPASISCRSSQELVHSNRNTYLHWYQQKPGQAPRLLIYKVSNRFSGVPDRFSGSGSGTDFTLKISRVEAEDVGVYYCGQGTQVPYTFGQGTKLEIK |
| 0.68 | GLS3000 R54Q (antibody, name in Kabat numbering, V domains shown, one-arm format as m2) VH: QVQLVESGGGVVQPGRSLRLSCAASGFTFSNAWMHWVRQAPGKGLEWVAQIKAKSNNYATYYAESVKGRFTISRDDSKNSLYLQMNSLKTEDTAVYYCRYVHYGAYYGVDAWGQGTTVTVSS VL: DIVMTQSPLSLPVTPGEPASISCRSSQSLVHSNRNTYLHWYQQKPGQAPRLLIYKVSNQFSGVPDRFSGSGSGTDFTLKISRVEAEDVGVYYCGQGTQVPYTFGQGTKLEIK |
| 0.78 | GLS3000 R54W (antibody, name in Kabat numbering, V domains shown, one-arm format as m2) VH: QVQLVESGGGVVQPGRSLRLSCAASGFTFSNAWMHWVRQAPGKGLEWVAQIKAKSNNYATYYAESVKGRFTISRDDSKNSLYLQMNSLKTEDTAVYYCRYVHYGAYYGVDAWGQGTTVTVSS VL: DIVMTQSPLSLPVTPGEPASISCRSSQSLVHSNRNTYLHWYQQKPGQAPRLLIYKVSNWFSGVPDRFSGSGSGTDFTLKISRVEAEDVGVYYCGQGTQVPYTFGQGTKLEIK |
| 0.74 | GLS3000 S26E (antibody, name in Kabat numbering, V domains shown, one-arm format as m2) VH: QVQLVESGGGVVQPGRSLRLSCAASGFTFSNAWMHWVRQAPGKGLEWVAQIKAKSNNYATYYAESVKGRFTISRDDSKNSLYLQMNSLKTEDTAVYYCRYVHYGAYYGVDAWGQGTTVTVSS VL: DIVMTQSPLSLPVTPGEPASISCRSEQSLVHSNRNTYLHWYQQKPGQAPRLLIYKVSNRFSGVPDRFSGSGSGTDFTLKISRVEAEDVGVYYCGQGTQVPYTFGQGTKLEIK |
| 1.01 | GLS3000 S25P (antibody, name in Kabat numbering, V domains shown, one-arm format as m2) VH: QVQLVESGGGVVQPGRSLRLSCAASGFTFSNAWMHWVRQAPGKGLEWVAQIKAKSNNYATYYAESVKGRFTISRDDSKNSLYLQMNSLKTEDTAVYYCRYVHYGAYYGVDAWGQGTTVTVSS VL: DIVMTQSPLSLPVTPGEPASISCRPSQSLVHSNRNTYLHWYQQKPGQAPRLLIYKVSNRFSGVPDRFSGSGSGTDFTLKISRVEAEDVGVYYCGQGTQVPYTFGQGTKLEIK |
| 0.79 | GLS3000 R54S (antibody, name in Kabat numbering, V domains shown, one-arm format as m2) VH: QVQLVESGGGVVQPGRSLRLSCAASGFTFSNAWMHWVRQAPGKGLEWVAQIKAKSNNYATYYAESVKGRFTISRDDSKNSLYLQMNSLKTEDTAVYYCRYVHYGAYYGVDAWGQGTTVTVSS VL: DIVMTQSPLSLPVTPGEPASISCRSSQSLVHSNRNTYLHWYQQKPGQAPRLLIYKVSNSFSGVPDRFSGSGSGTDFTLKISRVEAEDVGVYYCGQGTQVPYTFGQGTKLEIK |
| 0.73 | GLS3000 S25V (antibody, name in Kabat numbering, V domains shown, one-arm format as m2) VH: QVQLVESGGGVVQPGRSLRLSCAASGFTFSNAWMHWVRQAPGKGLEWVAQIKAKSNNYATYYAESVKGRFTISRDDSKNSLYLQMNSLKTEDTAVYYCRYVHYGAYYGVDAWGQGTTVTVSS VL: DIVMTQSPLSLPVTPGEPASISCRVSQSLVHSNRNTYLHWYQQKPGQAPRLLIYKVSNRFSGVPDRFSGSGSGTDFTLKISRVEAEDVGVYYCGQGTQVPYTFGQGTKLEIK |
| 0.65 | GLS3000 R54T (antibody, name in Kabat numbering, V domains shown, one-arm format as m2) VH: QVQLVESGGGVVQPGRSLRLSCAASGFTFSNAWMHWVRQAPGKGLEWVAQIKAKSNNYATYYAESVKGRFTISRDDSKNSLYLQMNSLKTEDTAVYYCRYVHYGAYYGVDAWGQGTTVTVSS VL: DIVMTQSPLSLPVTPGEPASISCRSSQSLVHSNRNTYLHWYQQKPGQAPRLLIYKVSNTFSGVPDRFSGSGSGTDFTLKISRVEAEDVGVYYCGQGTQVPYTFGQGTKLEIK |
| 0.92 | GLS3000 S25A (antibody, name in Kabat numbering, V domains shown, one-arm format as m2) VH: QVQLVESGGGVVQPGRSLRLSCAASGFTFSNAWMHWVRQAPGKGLEWVAQIKAKSNNYATYYAESVKGRFTISRDDSKNSLYLQMNSLKTEDTAVYYCRYVHYGAYYGVDAWGQGTTVTVSS VL: DIVMTQSPLSLPVTPGEPASISCRASQSLVHSNRNTYLHWYQQKPGQAPRLLIYKVSNRFSGVPDRFSGSGSGTDFTLKISRVEAEDVGVYYCGQGTQVPYTFGQGTKLEIK |
| 0.21 | GLS3000 S25E (antibody, name in Kabat numbering, V domains shown, one-arm format as m2) VH: QVQLVESGGGVVQPGRSLRLSCAASGFTFSNAWMHWVRQAPGKGLEWVAQIKAKSNNYATYYAESVKGRFTISRDDSKNSLYLQMNSLKTEDTAVYYCRYVHYGAYYGVDAWGQGTTVTVSS VL: DIVMTQSPLSLPVTPGEPASISCRESQSLVHSNRNTYLHWYQQKPGQAPRLLIYKVSNRFSGVPDRFSGSGSGTDFTLKISRVEAEDVGVYYCGQGTQVPYTFGQGTKLEIK |
| 0.48 | GLS3000 S25D (antibody, name in Kabat numbering, V domains shown, one-arm format as m2) VH: QVQLVESGGGVVQPGRSLRLSCAASGFTFSNAWMHWVRQAPGKGLEWVAQIKAKSNNYATYYAESVKGRFTISRDDSKNSLYLQMNSLKTEDTAVYYCRYVHYGAYYGVDAWGQGTTVTVSS VL: DIVMTQSPLSLPVTPGEPASISCRDSQSLVHSNRNTYLHWYQQKPGQAPRLLIYKVSNRFSGVPDRFSGSGSGTDFTLKISRVEAEDVGVYYCGQGTQVPYTFGQGTKLEIK |
| 0.31 | GLS3000 S25M (antibody, name in Kabat numbering, V domains shown, one-arm format as m2) VH: QVQLVESGGGVVQPGRSLRLSCAASGFTFSNAWMHWVRQAPGKGLEWVAQIKAKSNNYATYYAESVKGRFTISRDDSKNSLYLQMNSLKTEDTAVYYCRYVHYGAYYGVDAWGQGTTVTVSS VL: DIVMTQSPLSLPVTPGEPASISCRMSQSLVHSNRNTYLHWYQQKPGQAPRLLIYKVSNRFSGVPDRFSGSGSGTDFTLKISRVEAEDVGVYYCGQGTQVPYTFGQGTKLEIK |
| 0.79 | GLS3000 S27aD (antibody, name in Kabat numbering, V domains shown, one-arm format as m2) VH: QVQLVESGGGVVQPGRSLRLSCAASGFTFSNAWMHWVRQAPGKGLEWVAQIKAKSNNYATYYAESVKGRFTISRDDSKNSLYLQMNSLKTEDTAVYYCRYVHYGAYYGVDAWGQGTTVTVSS VL: DIVMTQSPLSLPVTPGEPASISCRSSQDLVHSNRNTYLHWYQQKPGQAPRLLIYKVSNRFSGVPDRFSGSGSGTDFTLKISRVEAEDVGVYYCGQGTQVPYTFGQGTKLEIK |
| 0.92 | GLS3000 R77S (antibody, name in Kabat numbering, V domains shown, one-arm format as m2) VH: QVQLVESGGGVVQPGRSLRLSCAASGFTFSNAWMHWVRQAPGKGLEWVAQIKAKSNNYATYYAESVKGRFTISRDDSKNSLYLQMNSLKTEDTAVYYCRYVHYGAYYGVDAWGQGTTVTVSS VL: DIVMTQSPLSLPVTPGEPASISCRSSQSLVHSNRNTYLHWYQQKPGQAPRLLIYKVSNRFSGVPDRFSGSGSGTDFTLKISSVEAEDVGVYYCGQGTQVPYTFGQGTKLEIK |
